Results on one molecule are retold here after publication PMC10166511, “Fast cross-linking by DOPA2 promotes the capturing of a stereospecific protein complex over nonspecific encounter complexes” (Biophysics Reports, 2022).

This assay concerns the target T1, EIIA^Glc (UniProt P69783 2-169).
T1 construct: EIIA^Glc, functional subunit of Enzyme II of the bacterial glucose phosphotransferase system; Species is stated only for enzyme I (E. coli); source: purified as previously described (Garrett et al. 1999; Xing et al. 2014)
The assay can be described thus: SPR + ELISA; no accurate KD obtained; format and conditions not told. The conditions noted are these: both partners purified.

Usually Kd stands for a measure of binding affinity in units of concentration.

T1 sequence (P69783 2-169): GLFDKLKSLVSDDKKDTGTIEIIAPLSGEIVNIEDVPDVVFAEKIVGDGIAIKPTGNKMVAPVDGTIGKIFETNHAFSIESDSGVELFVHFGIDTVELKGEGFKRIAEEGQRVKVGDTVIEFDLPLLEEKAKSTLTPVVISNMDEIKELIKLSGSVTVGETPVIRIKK

B1: EIIB^Glc (domain or fragment)
chain: EDATEDAKATGTSEMAPALVAAFGGKENITNLDACITRLRVSVADVSKVDQAGLKKLGAAGVVVAGSGVQAIFGTKSDNLKTEMDEYIRN
notes: EIIB^Glc, functional subunit of Enzyme II of the bacterial glucose phosphotransferase system; Species is stated only for enzyme I (E. coli); source: purified as previously described (Garrett et al. 1999; Xing et al. 2014)
In the case of B1, the Kd is over 10 µM.
